In test [1] the target is SARS-CoV-2 full length Spike protein, wild type (SARS-CoV-2, UniProt P0DTC2 14-1208).
Test [2] addresses SARS-CoV-2 full length Spike protein, wild type, expressed on CHO cells (SARS-CoV-2, UniProt P0DTC2 14-1273).
Test [3] addresses T1, SARS-CoV full length Spike protein, wild type, expressed on CHO cells (SARS-CoV, UniProt P59594 14-1255).
Test [4] concerns the target T1, SARS-CoV full length Spike protein, …. The test is described as follows: flow cytometry, live cell assay on transfected CHO cells. A general note: In flow cytometry, cells or beads pass a laser one at a time.

The record followed here is patent US20220356229A1 (published 2022).

B1: antibody 566 (antibody, V domains shown)
VH: QVQLVQSGAEVKKPGASVKVSCKASGYTFTSYAMHWVRQAPGQRLEWMGWINAGNGNTKYSQKFQGRVTITRDTSASTAYMELSSLRSEDTAVYYCARDLGVAVTLHPADFDYWGQGTLVTVSS
VL: QSVLTQPPSVSGAPGQRVTISCTGSSSNIGAGYDVHWYQQLPGTAPKLLIYDNSNRPSGVPDRFSGSKSGTSASLAITGLQAEDEADYYCQSYDSSLSAVVFGGGTKLTVL
As for B1, the “median fluorescence intensity, fold over isotype control” value (“median fluorescence intensity, fold” below) in test [1] was determined as 613 fold over isotype.

B2: antibody 564 (antibody, V domains shown)
VH: QVHLVESGGGVVQPGKSLRLSCAASGFIFSSFGMHWVRQPPGKGLEWLAVVSYDGSVTKYSDSFEGRFTISRDNSKNTLYLQMDSLRPEDTAVYYCAKGQGTNLLHYWGQGILVTVSS
VL: DVVLSQSPLSLPVTLGQPASISCRSSESLVYTDGDTYLHWFHQRPGQSPRRLIFKVSHRESGVPDRISGSGSGTDFTLKISRVEAEDVGVYYCMQGTHWPFTFGPGTKVDIK
For B2, in test [1], the “median fluorescence intensity, fold” value stood at 523 fold over isotype.

B3: anti-SARS-CoV-2 antibody 1538 (antibody, V domains shown)
VH: EVQLLESGGGLVQPGGSLRLSCAASGFTFSSYAMSWVRQAPGKGLEWVSGISDSGGSTYYADYVKGRFTISRDNSKDTLYLQMNSLRAEDTAVYYCAKDRGNEYALTHYYYYAMDVWGQGTTVTVSS
VL: DIQMTQSPSSLSASVGDRVTITCRASQSISSYLNWYQQKPGKAPKLLIYAAYSLQSGVPSRFSGGGSGTDFTLTISSLQPEDFATYFCQQSYSTPITFGQGTRLEIKR
B3: the figures for the “median fluorescence intensity, fold” value in test [2] and in test [3] were 67.5 fold over isotype and 0.75 fold over isotype, respectively. In test [4], the binding result was “no binding”.

B4: antibody 556 (antibody, V domains shown)
VH: QVQLVESGGGVVQPGRSLRLSCAASGFTFSSYAMHWVRQAPGKGLEWVAVISYDGSDKYYADSVKGRVTISRDNSKNTLYLQMNSLRVEDTAVFYCAKDDCSGGVCFPDYWGQGTLVTVSS
VL: QSALTQPASVSGSPGQSITISCTGTSSDVGGYNYVSWYQQHPGKAPKLMIYEVSIRPSGVSNRFSGSKSGNTASLTISGLQAEDEAAYYCSSYTSSSTLVFGGGTKLTVL
As for B4, the “median fluorescence intensity, fold” value in test [1] was found to be 625 fold over isotype.

B5: antibody 563 (antibody, V domains shown)
VH: QVQLVESGGGVVQPGRSLRLSCAASGFTFSSYAMHWVRQAPGKGLEWVAVISDDGSNKYYADSVKGRFTISRDNSKNTLYLQMNSLRAEDTAVYYCARDIVATIRRLFDYWGQGTLVTVSS
VL: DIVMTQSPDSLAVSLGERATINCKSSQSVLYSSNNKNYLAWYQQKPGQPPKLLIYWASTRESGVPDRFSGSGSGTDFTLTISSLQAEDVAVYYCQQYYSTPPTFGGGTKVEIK
Consider B5, for which, in test [1], the “median fluorescence intensity, fold” value worked out at 513 fold over isotype.

B6: antibody 571 (antibody, V domains shown)
VH: EVQLVESGGGLVQPGGSLRLSCAASGFTFSTYWMTWVRQAPGKGLEWVANIKHDGSGKYHVDSVKGRFTISRDNAKNSLYLQMNSLRAEDTAVYYCTRDEGGWYDYWGQGTLVTVSS
VL: QSALTQPASVSGSPGQSITISCTGTSSDVGSYNPVSWYQQHPGKAPKVMIYEGSKRPSGVSNRFSGSKSGNTASLTISGLQAEDEADYYCCSYARSSTFVVFGGGTKLTVL
In the case of B6, the “median fluorescence intensity, fold” value in test [1] worked out at 338 fold over isotype.

B7: antibody 569 (antibody, V domains shown)
VH: QVQLVESGGGVVQPGRSLRLSCAASGFTFSSYAMHWVRQAPGKGLEWVAVISYDGSNKYYADSVKGRFTISRDNSKNTLYLQMNSLRAEDTAVYYCARASSGGYQGPFDPWGQGTLVTVSS
VL: EIVLTQSPATLSLSPGERATLSCRASQSVSSYLAWYQQKPGQAPRLLIYDASNRATGIPARFSGSGSGTDFTLTISSLEPEDFAVYYCQQRSSPFGPGTKVDIK
In the case of B7, the “median fluorescence intensity, fold” value in test [1] came out at 478 fold over isotype.

B8: antibody 560 (antibody, V domains shown)
VH: EVQLVESGGGLVQPGGSLRLSCAASGFTISSNYMSWVRQAPGKGLEWVSVIYSGGSTYYADSVKGRFTISRDNSKNTLYLQMNSLRAEDTAVYYCAREEGEWEKDYYGMDVWGQGTTVTVSS
VL: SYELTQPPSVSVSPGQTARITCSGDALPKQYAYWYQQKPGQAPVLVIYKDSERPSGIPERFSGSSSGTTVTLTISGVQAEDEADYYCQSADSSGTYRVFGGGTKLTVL
For the molecule B8, the “median fluorescence intensity, fold” value in test [1] turned out to be 991 fold over isotype.
